For assay [1], the target named is T1, human PD-1 (Programmed Death 1), full-length, expressed on transiently transfected HEK293 cells (human, UniProt Q15116 25-288).
T1 construct: whole, on cells; also called CD279; PDCD1
Nature of the assay: flow cytometry on HEK293 cells transiently transfected with human PD-1; FITC mouse anti-human IgG secondary. The method, then:
(§1) HEK293 cells were transiently transfected by culturing at 5×10⁶/well with 5 μg human PD-1 DNA and 293 fectin (Invitrogen) overnight in 6 well plates. […] Cells were washed with PBS and incubated with an appropriate secondary antibody, either FITC Mouse anti Human IgG (05-4211 Zymed, 1:20 dilution) or rat anti Mouse IgG (04-6111 Zymed, 1:20 dilution) for 1 hr at 4° C. Flow cytometry analysis was performed on a FACSCalibur (Becton Dickinson).
On the technique in general: A flow cytometer gives signals particle by particle.

Assay [2] deals with T1, human PD-1 (Programmed Death 1), …. Nature of the assay: flow cytometry on HEK293 cells transiently transfected with human PD-1; rat anti-mouse IgG secondary. The method, then:
as §1

T1 sequence (Q15116 25-288): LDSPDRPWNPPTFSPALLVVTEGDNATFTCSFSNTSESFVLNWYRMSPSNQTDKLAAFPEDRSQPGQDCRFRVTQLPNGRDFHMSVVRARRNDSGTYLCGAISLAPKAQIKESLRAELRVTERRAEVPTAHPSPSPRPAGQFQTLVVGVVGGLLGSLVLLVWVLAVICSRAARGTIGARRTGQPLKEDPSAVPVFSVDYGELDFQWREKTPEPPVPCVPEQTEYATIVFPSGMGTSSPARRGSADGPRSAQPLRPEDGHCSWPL

B1: 948.g1 (948 humanised graft; gL1 light chain, g1 heavy chain, human gamma-4 S241P / human kappa) (antibody, human IgG4 S228P, kappa, V domains shown)
VH: EVQLQESGPGLVKPSQTLSLTCTVTGYSITSDYAWNWIRQPPGKKLEWMGYINYSGSTSYNPSLKSRVTISRDTSKNQFSLKLSSVTAADTAVYYCARWIGSSAWYFDVWGQGTLVTVSS
VL: DVLMTQTPLSLSVTPGQPASISCRSGQNIVHSNGNTYLEWYLQKPGQSPKLLIYKVSNRFFGVPDRISGSGSGTDFTLKISRVEAEDVGVYFCFQGSHVPFTFGQGTKLEIKR
With B1, the binding result in assay [1] is on record as “binds”.

B2: antibody CA051-00948 (948 murine parental; cloned recombinant antibody derived from hybridoma Clone 10) (antibody, IgG1, V domains shown)
VH: DVQLQESGPGLVKPSQSLSLTCTVTGYSITSDYAWNWIRQFPGNKLEWMGYINYSGSTSYNPSLKSRISITRDTSKNQFFLQLNSVTTEDTATYYCARWIGSSAWYFDVWGAGTTVTVS
VL: DVLMTQTPLSLPVSLGDQASISCRSGQNIVHSNGNTYLEWYLQKPGQSPKLLIYKVSNRFFGVPDRISGSGSGTDFTLKISRVEAEDLGVYFCFQGSHVPFTFGSGTKLEIK
notes: also called Ab948
Regarding B2, the binding result in assay [2] was “binds”.

The values above are taken from patent US20130095098A1 (UCB, published 2013).
